According to PMC5346638, “Azadiradione ameliorates polyglutamine expansion disease in Drosophila by potentiating DNA binding activity of heat shock factor 1” (Oncotarget, 2016):

Assays:
[1] = target: T1, heat shock factor 1 (HSF1) (Homo sapiens, UniProt Q00613); assay: intrinsic tryptophan fluorescence titration, Scatchard plot; supported by EMSA, CD, light scattering; type: binding
T1 construct: purified full length HSF1, N-terminal his6 tag, expressed in E. coli
T1 sequence (Q00613 1-529): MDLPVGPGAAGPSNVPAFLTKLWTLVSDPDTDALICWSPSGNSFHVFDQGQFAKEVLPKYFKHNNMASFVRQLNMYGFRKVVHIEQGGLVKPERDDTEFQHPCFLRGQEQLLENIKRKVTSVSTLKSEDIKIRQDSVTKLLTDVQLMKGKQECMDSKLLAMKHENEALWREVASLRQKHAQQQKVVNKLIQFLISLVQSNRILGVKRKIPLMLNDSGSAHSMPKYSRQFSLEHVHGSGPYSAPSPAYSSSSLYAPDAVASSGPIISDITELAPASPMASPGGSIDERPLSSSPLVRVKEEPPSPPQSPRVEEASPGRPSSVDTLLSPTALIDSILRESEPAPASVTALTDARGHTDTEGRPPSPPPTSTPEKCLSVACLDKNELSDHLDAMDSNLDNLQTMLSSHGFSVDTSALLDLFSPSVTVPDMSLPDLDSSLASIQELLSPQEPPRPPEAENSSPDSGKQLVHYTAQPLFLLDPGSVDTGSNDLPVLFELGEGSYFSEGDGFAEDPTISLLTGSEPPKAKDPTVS

[2] = tested on: his6-HSF1 (codon-optimized) (Homo sapiens); assay: tryptophan fluorescence quenching; settings: room temperature, Fluorescence: 2 uM HSF1, 0-10 uM HSE, buffer not given, EMSA: 0.5 uM protein or 50 ug WCE, 1 ng 32P-HSE, buffer per cited reference, 4% PAGE
[3] = tested on: his6-HSF1 (codon-optimized) (Homo sapiens); assay: EMSA; settings: Fluorescence: 2 uM HSF1, 0-10 uM HSE, room temperature, buffer not given; EMSA: 0.5 uM protein or 50 ug WCE, 1 ng 32P-HSE, buffer per cited reference, 4% PAGE

| Compound | Kd [1] | Kd ([2]; 5 uM azadiradione) | Kd ([2]; no AZD) | binding signal (fold affinity increase with AZD) [3] |
| --- | --- | --- | --- | --- |
| CC(=O)O[C@@H]1C[C@H]2C(C)(C)C(=O)C=C[C@]2(C)[C@H]2CC[C@]3(C)C(=CC(=O)[C@H]3c3ccoc3)[C@@]21C [AZD, azadiradione] | 1350 nM | – | – | – |
| HSE (proximal HSE of hsp70A1A promoter) | – | 350 nM | 800 nM | > 2 |
